Source: publication PMC2914249, “Structure and Reactivity of Bacillus subtilis MenD Catalyzing the First Committed Step in Menaquinone Biosynthesis” (Journal of Molecular Biology, 2010)

What was measured:
[1] = substrate: C=C(O[C@H]1C=CC=C(C(=O)O)[C@@H]1O)C(=O)O; test: purified protein; format: biochemical, Bacillus subtilis; details: 50 mM Tris-HCl pH 7.8, 20 mM NaCl, 5 mM MgSO4, 23 °C, co-substrate α-ketoglutarate
[2] = substrate: O=C(O)CCC(=O)C(=O)O; test: purified protein; format: biochemical, Bacillus subtilis; details: 50 mM Tris-HCl pH 7.8, 20 mM NaCl, 5 mM MgSO4, 23 °C, co-substrate isochorismate

B1: BsMenD (MenD, SEPHCHC synthase, EC 2.2.1.9) (Bacillus subtilis subsp. subtilis str. 168; I489A) (protein)
chain: MTVNPITHYIGSFIDEFALSGITDAVVCPGSRSTPLAVLCAAHPDISVHVQIDERSAGFFALGLAKAKQRPVLLICTSGTAAANFYPAVVEAHYSRVPIIVLTADRPHELREVGAPQAINQHFLFGNFVKFFTDSALPEESPQMLRYIRTLASRAAGEAQKRPMGPVHVNVPLREPLMPDLSDEPFGRMRTGRHVSVKTGTQSVDRESLSDVAEMLAEAEKGMIVCGELHSDADKENIIALSKALQYPILADPLSNLRNGVHDKSTVIDAYDSFLKDDELKRKLRPDVVIRFGPMPVSKPVFLWLKDDPTIQQIVIDEDGGWRDPTQASAHMIHCNASVFAEEIMAGLTAATRSSEWLEKWQFVNGRFREHLQTISSEDVSFEGNLYRILQHLVPENSSLFVGNSMPIRDVDTFFEKQDRPFRIYSNRGANGIDGVVSSAMGVCEGTKAPVTLVIGDLSFYHDLNGLLAAKKLGIPLTVILVNNDGGGAFSFLPQASEKTHFEDLFGTPTGLDFKHAAALYGGTYSCPASWDEFKTAYAPQADKPGLHLIEIKTDRQSRVQLHRDMLNEAVREVKKQWEL
notes: full length (Thr2-Leu580 seen in crystal); N-terminal hexa-His tag with TEV site kept (24 extra residues); E. coli BL21(DE3); dimer peak used (tetramer in crystal); active site formed by two subunits
With B1 the Km [1] was 27 ± 1 µM, the kcat [1] was 0.095 ± 0.00333 s⁻¹ and the kcat/Km [1] was 3500 ± 167 M⁻¹ s⁻¹. It also gave a Km [2] of 346 ± 10 µM.

B2: BsMenD (MenD, SEPHCHC synthase, EC 2.2.1.9) (Bacillus subtilis subsp. subtilis str. 168; R32A) (protein)
chain: MTVNPITHYIGSFIDEFALSGITDAVVCPGSASTPLAVLCAAHPDISVHVQIDERSAGFFALGLAKAKQRPVLLICTSGTAAANFYPAVVEAHYSRVPIIVLTADRPHELREVGAPQAINQHFLFGNFVKFFTDSALPEESPQMLRYIRTLASRAAGEAQKRPMGPVHVNVPLREPLMPDLSDEPFGRMRTGRHVSVKTGTQSVDRESLSDVAEMLAEAEKGMIVCGELHSDADKENIIALSKALQYPILADPLSNLRNGVHDKSTVIDAYDSFLKDDELKRKLRPDVVIRFGPMPVSKPVFLWLKDDPTIQQIVIDEDGGWRDPTQASAHMIHCNASVFAEEIMAGLTAATRSSEWLEKWQFVNGRFREHLQTISSEDVSFEGNLYRILQHLVPENSSLFVGNSMPIRDVDTFFEKQDRPFRIYSNRGANGIDGVVSSAMGVCEGTKAPVTLVIGDLSFYHDLNGLLAAKKLGIPLTVILVNNDGGGIFSFLPQASEKTHFEDLFGTPTGLDFKHAAALYGGTYSCPASWDEFKTAYAPQADKPGLHLIEIKTDRQSRVQLHRDMLNEAVREVKKQWEL
notes: as for B1
B2 showed a Km [1] of 49 ± 7 µM, a kcat [1] of 0.183 ± 0.0167 s⁻¹ and a kcat/Km [1] of 3670 ± 167 M⁻¹ s⁻¹.

B3: BsMenD (MenD, SEPHCHC synthase, EC 2.2.1.9) (Bacillus subtilis subsp. subtilis str. 168; R428A) (protein)
chain: MTVNPITHYIGSFIDEFALSGITDAVVCPGSRSTPLAVLCAAHPDISVHVQIDERSAGFFALGLAKAKQRPVLLICTSGTAAANFYPAVVEAHYSRVPIIVLTADRPHELREVGAPQAINQHFLFGNFVKFFTDSALPEESPQMLRYIRTLASRAAGEAQKRPMGPVHVNVPLREPLMPDLSDEPFGRMRTGRHVSVKTGTQSVDRESLSDVAEMLAEAEKGMIVCGELHSDADKENIIALSKALQYPILADPLSNLRNGVHDKSTVIDAYDSFLKDDELKRKLRPDVVIRFGPMPVSKPVFLWLKDDPTIQQIVIDEDGGWRDPTQASAHMIHCNASVFAEEIMAGLTAATRSSEWLEKWQFVNGRFREHLQTISSEDVSFEGNLYRILQHLVPENSSLFVGNSMPIRDVDTFFEKQDRPFRIYSNAGANGIDGVVSSAMGVCEGTKAPVTLVIGDLSFYHDLNGLLAAKKLGIPLTVILVNNDGGGIFSFLPQASEKTHFEDLFGTPTGLDFKHAAALYGGTYSCPASWDEFKTAYAPQADKPGLHLIEIKTDRQSRVQLHRDMLNEAVREVKKQWEL
notes: as for B1
B3 was tested, and the Km [2] was 514 ± 54 µM, the kcat [2] was 0.0567 ± 0.00333 s⁻¹ and the kcat/Km [2] was 117 ± 16.7 M⁻¹ s⁻¹.

B4: BsMenD (MenD, SEPHCHC synthase, EC 2.2.1.9) (Bacillus subtilis subsp. subtilis str. 168; R409A) (protein)
chain: MTVNPITHYIGSFIDEFALSGITDAVVCPGSRSTPLAVLCAAHPDISVHVQIDERSAGFFALGLAKAKQRPVLLICTSGTAAANFYPAVVEAHYSRVPIIVLTADRPHELREVGAPQAINQHFLFGNFVKFFTDSALPEESPQMLRYIRTLASRAAGEAQKRPMGPVHVNVPLREPLMPDLSDEPFGRMRTGRHVSVKTGTQSVDRESLSDVAEMLAEAEKGMIVCGELHSDADKENIIALSKALQYPILADPLSNLRNGVHDKSTVIDAYDSFLKDDELKRKLRPDVVIRFGPMPVSKPVFLWLKDDPTIQQIVIDEDGGWRDPTQASAHMIHCNASVFAEEIMAGLTAATRSSEWLEKWQFVNGRFREHLQTISSEDVSFEGNLYRILQHLVPENSSLFVGNSMPIADVDTFFEKQDRPFRIYSNRGANGIDGVVSSAMGVCEGTKAPVTLVIGDLSFYHDLNGLLAAKKLGIPLTVILVNNDGGGIFSFLPQASEKTHFEDLFGTPTGLDFKHAAALYGGTYSCPASWDEFKTAYAPQADKPGLHLIEIKTDRQSRVQLHRDMLNEAVREVKKQWEL
notes: as for B1
B4 showed a Km [1] of 8.5 ± 1.2 µM, a kcat [1] of 0.0233 ± 0.00167 s⁻¹ and a kcat/Km [1] of 2670 ± 333 M⁻¹ s⁻¹. The Km [2] was 159 ± 18 µM.

B5: BsMenD (MenD, SEPHCHC synthase, EC 2.2.1.9) (Bacillus subtilis subsp. subtilis str. 168; K299A) (protein)
chain: MTVNPITHYIGSFIDEFALSGITDAVVCPGSRSTPLAVLCAAHPDISVHVQIDERSAGFFALGLAKAKQRPVLLICTSGTAAANFYPAVVEAHYSRVPIIVLTADRPHELREVGAPQAINQHFLFGNFVKFFTDSALPEESPQMLRYIRTLASRAAGEAQKRPMGPVHVNVPLREPLMPDLSDEPFGRMRTGRHVSVKTGTQSVDRESLSDVAEMLAEAEKGMIVCGELHSDADKENIIALSKALQYPILADPLSNLRNGVHDKSTVIDAYDSFLKDDELKRKLRPDVVIRFGPMPVSAPVFLWLKDDPTIQQIVIDEDGGWRDPTQASAHMIHCNASVFAEEIMAGLTAATRSSEWLEKWQFVNGRFREHLQTISSEDVSFEGNLYRILQHLVPENSSLFVGNSMPIRDVDTFFEKQDRPFRIYSNRGANGIDGVVSSAMGVCEGTKAPVTLVIGDLSFYHDLNGLLAAKKLGIPLTVILVNNDGGGIFSFLPQASEKTHFEDLFGTPTGLDFKHAAALYGGTYSCPASWDEFKTAYAPQADKPGLHLIEIKTDRQSRVQLHRDMLNEAVREVKKQWEL
notes: as for B1
Work on B5 yielded a Km [1] of 8.4 ± 1.2 µM, a kcat [1] of 0.417 ± 0.0333 s⁻¹ and a kcat/Km [1] of 50000 ± 5000 M⁻¹ s⁻¹.

B6: BsMenD (MenD, SEPHCHC synthase, EC 2.2.1.9) (Bacillus subtilis subsp. subtilis str. 168) (protein)
chain: MTVNPITHYIGSFIDEFALSGITDAVVCPGSRSTPLAVLCAAHPDISVHVQIDERSAGFFALGLAKAKQRPVLLICTSGTAAANFYPAVVEAHYSRVPIIVLTADRPHELREVGAPQAINQHFLFGNFVKFFTDSALPEESPQMLRYIRTLASRAAGEAQKRPMGPVHVNVPLREPLMPDLSDEPFGRMRTGRHVSVKTGTQSVDRESLSDVAEMLAEAEKGMIVCGELHSDADKENIIALSKALQYPILADPLSNLRNGVHDKSTVIDAYDSFLKDDELKRKLRPDVVIRFGPMPVSKPVFLWLKDDPTIQQIVIDEDGGWRDPTQASAHMIHCNASVFAEEIMAGLTAATRSSEWLEKWQFVNGRFREHLQTISSEDVSFEGNLYRILQHLVPENSSLFVGNSMPIRDVDTFFEKQDRPFRIYSNRGANGIDGVVSSAMGVCEGTKAPVTLVIGDLSFYHDLNGLLAAKKLGIPLTVILVNNDGGGIFSFLPQASEKTHFEDLFGTPTGLDFKHAAALYGGTYSCPASWDEFKTAYAPQADKPGLHLIEIKTDRQSRVQLHRDMLNEAVREVKKQWEL
notes: as for B1
Protein B6 has a Km [1] of 1.1 ± 0.2 µM, a kcat [1] of 0.317 ± 0.0167 s⁻¹ and a kcat/Km [1] of 317000 ± 50000 M⁻¹ s⁻¹. The Km [2] was 22 ± 5 µM, the kcat [2] was 0.233 ± 0.0333 s⁻¹ and the kcat/Km [2] was 10700 ± 5000 M⁻¹ s⁻¹.

B7: BsMenD (MenD, SEPHCHC synthase, EC 2.2.1.9) (Bacillus subtilis subsp. subtilis str. 168; R106A) (protein)
chain: MTVNPITHYIGSFIDEFALSGITDAVVCPGSRSTPLAVLCAAHPDISVHVQIDERSAGFFALGLAKAKQRPVLLICTSGTAAANFYPAVVEAHYSRVPIIVLTADAPHELREVGAPQAINQHFLFGNFVKFFTDSALPEESPQMLRYIRTLASRAAGEAQKRPMGPVHVNVPLREPLMPDLSDEPFGRMRTGRHVSVKTGTQSVDRESLSDVAEMLAEAEKGMIVCGELHSDADKENIIALSKALQYPILADPLSNLRNGVHDKSTVIDAYDSFLKDDELKRKLRPDVVIRFGPMPVSKPVFLWLKDDPTIQQIVIDEDGGWRDPTQASAHMIHCNASVFAEEIMAGLTAATRSSEWLEKWQFVNGRFREHLQTISSEDVSFEGNLYRILQHLVPENSSLFVGNSMPIRDVDTFFEKQDRPFRIYSNRGANGIDGVVSSAMGVCEGTKAPVTLVIGDLSFYHDLNGLLAAKKLGIPLTVILVNNDGGGIFSFLPQASEKTHFEDLFGTPTGLDFKHAAALYGGTYSCPASWDEFKTAYAPQADKPGLHLIEIKTDRQSRVQLHRDMLNEAVREVKKQWEL
notes: as for B1
For B7, the Km [1] was 41 ± 4 µM, the kcat [1] was 0.0117 ± 0.00333 s⁻¹ and the kcat/Km [1] was 300 ± 167 M⁻¹ s⁻¹.

B8: BsMenD (MenD, SEPHCHC synthase, EC 2.2.1.9) (Bacillus subtilis subsp. subtilis str. 168; F490A) (protein)
chain: MTVNPITHYIGSFIDEFALSGITDAVVCPGSRSTPLAVLCAAHPDISVHVQIDERSAGFFALGLAKAKQRPVLLICTSGTAAANFYPAVVEAHYSRVPIIVLTADRPHELREVGAPQAINQHFLFGNFVKFFTDSALPEESPQMLRYIRTLASRAAGEAQKRPMGPVHVNVPLREPLMPDLSDEPFGRMRTGRHVSVKTGTQSVDRESLSDVAEMLAEAEKGMIVCGELHSDADKENIIALSKALQYPILADPLSNLRNGVHDKSTVIDAYDSFLKDDELKRKLRPDVVIRFGPMPVSKPVFLWLKDDPTIQQIVIDEDGGWRDPTQASAHMIHCNASVFAEEIMAGLTAATRSSEWLEKWQFVNGRFREHLQTISSEDVSFEGNLYRILQHLVPENSSLFVGNSMPIRDVDTFFEKQDRPFRIYSNRGANGIDGVVSSAMGVCEGTKAPVTLVIGDLSFYHDLNGLLAAKKLGIPLTVILVNNDGGGIASFLPQASEKTHFEDLFGTPTGLDFKHAAALYGGTYSCPASWDEFKTAYAPQADKPGLHLIEIKTDRQSRVQLHRDMLNEAVREVKKQWEL
notes: as for B1
Protein B8 has a Km [2] of 274 ± 12 µM, a kcat [2] of 0.0183 ± 0.00167 s⁻¹ and a kcat/Km [2] of 65 ± 3.33 M⁻¹ s⁻¹.

B9: BsMenD (MenD, SEPHCHC synthase, EC 2.2.1.9) (Bacillus subtilis subsp. subtilis str. 168; L493A) (protein)
chain: MTVNPITHYIGSFIDEFALSGITDAVVCPGSRSTPLAVLCAAHPDISVHVQIDERSAGFFALGLAKAKQRPVLLICTSGTAAANFYPAVVEAHYSRVPIIVLTADRPHELREVGAPQAINQHFLFGNFVKFFTDSALPEESPQMLRYIRTLASRAAGEAQKRPMGPVHVNVPLREPLMPDLSDEPFGRMRTGRHVSVKTGTQSVDRESLSDVAEMLAEAEKGMIVCGELHSDADKENIIALSKALQYPILADPLSNLRNGVHDKSTVIDAYDSFLKDDELKRKLRPDVVIRFGPMPVSKPVFLWLKDDPTIQQIVIDEDGGWRDPTQASAHMIHCNASVFAEEIMAGLTAATRSSEWLEKWQFVNGRFREHLQTISSEDVSFEGNLYRILQHLVPENSSLFVGNSMPIRDVDTFFEKQDRPFRIYSNRGANGIDGVVSSAMGVCEGTKAPVTLVIGDLSFYHDLNGLLAAKKLGIPLTVILVNNDGGGIFSFAPQASEKTHFEDLFGTPTGLDFKHAAALYGGTYSCPASWDEFKTAYAPQADKPGLHLIEIKTDRQSRVQLHRDMLNEAVREVKKQWEL
notes: as for B1
With B9 the Km [1] was 39 ± 1 µM, the kcat [1] was 0.317 ± 0.0167 s⁻¹ and the kcat/Km [1] was 8170 ± 500 M⁻¹ s⁻¹.
